Reference: paper PMC2808332, “Expanding the Substantial Interactome of NEMO Using Protein Microarrays” (PLoS ONE, 2010)

B1: Cyclic AMP phosphoprotein, 19 kDa (natural protein, human, UniProt P56211-1 1-112, looked up)
chain: MSAEVPEAASAEEQKEMEDKVTSPEKAEEAKLKARYPHLGQKPGGSDFLRKRLQKGQKYFDSGDYNMAKAKMKNKQLPTAAPDKTEVTGDHIPTPQDLPQRKPSLVASKLAG
notes: Cyclic AMP phosphoprotein, 19 kDa, human; also called ARPP-19; source: insect cell/baculovirus, purified, spotted (Invitrogen Protoarray v4.0)
B2: Leucine zipper and CTNNBIP1 domain containing (natural protein, human, UniProt Q8WZA0-1 1-190, looked up)
chain: MASRGKTETSKLKQNLEEQLDRLMQQLQDLEECREELDTDEYEETKKETLEQLSEFNDSLKKIMSGNMTLVDELSGMQLAIQAAISQAFKTPEVIRLFAKKQPGQLRTRLAEMDRDLMVGKLERDLYTQQKVEILTALRKLGEKLTADDEAFLSANAGAILSQFEKVSTDLGSGDKILALASFEVEKTKK
notes: Leucine zipper and CTNNBIP1 domain containing, human; also called LZIC; source: insect cell/baculovirus, purified, spotted (Invitrogen Protoarray v4.0)
B3: Prefoldin 5, transcript variant 1 (natural protein, human, UniProt Q99471-1 1-154, looked up)
chain: MAQSINITELNLPQLEMLKNQLDQEVEFLSTSIAQLKVVQTKYVEAKDCLNVLNKSNEGKELLVPLTSSMYVPGKLHDVEHVLIDVGTGYYVEKTAEDAKDFFKRKIDFLTKQMEKIQPALQEKHAMKQAVMEMMSQKIQQLTALGAAQATAKA
notes: Prefoldin 5, human; also called PFDN5; source: insect cell/baculovirus, purified, spotted (Invitrogen Protoarray v4.0)
B4: Growth arrest and DNA-damage-inducible, gamma (natural protein, human, UniProt O95257 1-159, looked up)
chain: MTLEEVRGQDTVPESTARMQGAGKALHELLLSAQRQGCLTAGVYESAKVLNVDPDNVTFCVLAAGEEDEGDIALQIHFTLIQAFCCENDIDIVRVGDVQRLAAIVGAGEEAGAPGDLHCILISNPNEDAWKDPALEKLSLFCEESRSVNDWVPSITLPE
notes: Growth arrest and DNA-damage-inducible, gamma, human; also called GADD45G; source: insect cell/baculovirus, purified, spotted (Invitrogen Protoarray v4.0)
B5: Ring finger protein 7 (sensitive to apoptosis gene, SAG) (natural protein, human, UniProt Q9UBF6-1 1-113, looked up)
chain: MADVEDGEETCALASHSGSSGSKSGGDKMFSLKKWNAVAMWSWDVECDTCAICRVQVMDACLRCQAENKQEDCVVVWGECNHSFHNCCMSLWVKQNNRCPLCQQDWVVQRIGK
notes: Ring finger protein 7 (sensitive to apoptosis gene, SAG), human; also called RNF7; source: insect cell/baculovirus, purified, spotted (Invitrogen Protoarray v4.0)
B6: Pleckstrin homology domain containing, family J member 1 (natural protein, human, UniProt Q9NW61 1-149, looked up)
chain: MRYNEKELQALSRQPAEMAAELGMRGPKKGSVLKRRLVKLVVNFLFYFRTDEAEPVGALLLERCRVVREEPGTFSISFIEDPERKYHFECSSEEQCQEWMEALRRASYEFMRRSLIFYRNEIRKVTGKDPLEQFGISEEARFQLSGLQA
notes: Pleckstrin homology domain containing, family J member 1, human; also called PLEKHJ1; source: insect cell/baculovirus, purified, spotted (Invitrogen Protoarray v4.0)
B7: Calbindin D28K (natural protein, human, UniProt P05937-1 1-261, looked up)
chain: MAESHLQSSLITASQFFEIWLHFDADGSGYLEGKELQNLIQELQQARKKAGLELSPEMKTFVDQYGQRDDGKIGIVELAHVLPTEENFLLLFRCQQLKSCEEFMKTWRKYDTDHSGFIETEELKNFLKDLLEKANKTVDDTKLAEYTDLMLKLFDSNNDGKLELTEMARLLPVQENFLLKFQGIKMCGKEFNKAFELYDQDGNGYIDENELDALLKDLCEKNKQDLDINNITTYKKNIMALSDGGKLYRTDLALILCAGDN
notes: also called CALB1; source: insect cell/baculovirus, purified, spotted (Invitrogen Protoarray v4.0)
B8: TBC1 domain family, member 7 (natural protein, human, UniProt Q9P0N9-1 1-293, looked up)
chain: MTEDSQRNFRSVYYEKVGFRGVEEKKSLEILLKDDRLDTEKLCTFSQRFPLPSMYRALVWKVLLGILPPHHESHAKVMMYRKEQYLDVLHALKVVRFVSDATPQAEVYLRMYQLESGKLPRSPSFPLEPDDEVFLAIAKAMEEMVEDSVDCYWITRRFVNQLNTKYRDSLPQLPKAFEQYLNLEDGRLLTHLRMCSAAPKLPYDLWFKRCFAGCLPESSLQRVWDKVVSGSCKILVFVAVEILLTFKIKVMALNSAEKITKFLENIPQDSSDAIVSKAIDLWHKHCGTPVHSS
notes: TBC1 domain family, member 7, human; also called TBC1D7; source: insect cell/baculovirus, purified, spotted (Invitrogen Protoarray v4.0)
B9: Leupaxin (natural protein, human, UniProt O60711-1 1-386, looked up)
chain: MEELDALLEELERSTLQDSDEYSNPAPLPLDQHSRKETNLDETSEILSIQDNTSPLPAQLVYTTNIQELNVYSEAQEPKESPPPSKTSAAAQLDELMAHLTEMQAKVAVRADAGKKHLPDKQDHKASLDSMLGGLEQELQDLGIATVPKGHCASCQKPIAGKVIHALGQSWHPEHFVCTHCKEEIGSSPFFERSGLAYCPNDYHQLFSPRCAYCAAPILDKVLTAMNQTWHPEHFFCSHCGEVFGAEGFHEKDKKPYCRKDFLAMFSPKCGGCNRPVLENYLSAMDTVWHPECFVCGDCFTSFSTGSFFELDGRPFCELHYHHRRGTLCHGCGQPITGRCISAMGYKFHPEHFVCAFCLTQLSKGIFREQNDKTYCQPCFNKLFPL
notes: Leupaxin, human; also called LPXN; source: insect cell/baculovirus, purified, spotted (Invitrogen Protoarray v4.0)
B10: Proteasome (prosome, macropain) subunit, alpha type, 3 (natural protein, human, UniProt P25788-1 1-255, looked up)
chain: MSSIGTGYDLSASTFSPDGRVFQVEYAMKAVENSSTAIGIRCKDGVVFGVEKLVLSKLYEEGSNKRLFNVDRHVGMAVAGLLADARSLADIAREEASNFRSNFGYNIPLKHLADRVAMYVHAYTLYSAVRPFGCSFMLGSYSVNDGAQLYMIDPSGVSYGYWGCAIGKARQAAKTEIEKLQMKEMTCRDIVKEVAKIIYIVHDEVKDKAFELELSWVGELTNGRHEIVPKDIREEAEKYAKESLKEEDESDDDNM
notes: Proteasome (prosome, macropain) subunit, alpha type, 3, human; also called PSMA3; source: insect cell/baculovirus, purified, spotted (Invitrogen Protoarray v4.0)
B11: Centaurin, alpha 2 (natural protein, human, UniProt Q9NPF8 1-381, looked up)
chain: MGDRERNKKRLLELLRAPDTGNAHCADCGAADPDWASYKLGIFICLNCCGVHRNFPDISRVKSVRLDFWDDSIVEFMIHNGNLRVKAKFEARVPAFYYIPQANDCLVLKEQWIRAKYERREFMADGETISLPGNREGFLWKRGRDNSQFLRRKFVLLAREGLLKYFTKEQGKSPKAVISIKDLNATFQTEKIGHPHGLQITYRRDGHTRNLFVYHESGKEIVDWFNALRAARLQYLKMAFPELPESELVPFLTRNYLKQGFMEKTGPKQKEPFKKRWFALDCHERRLLYYKNPLDAFEQGQVFLGNKEQGYEAYEDLPKGIRGNRWKAGLTIVTPERRFVLTCPSEKEQQEWLESLRGVLSSPLTPLNRLTASTESGRSSR
notes: Centaurin, alpha 2, human; also called CENTA2; source: insect cell/baculovirus, purified, spotted (Invitrogen Protoarray v4.0)

These binders were tested against T1, NEMO (NF-κB essential modulator), tag-free, biotinylated (human, UniProt Q9Y6K9 1-419, biotin (in vitro biotinylation kit, biotin:NEMO molar ratio 9:1)) (assay: peptide or protein array; Invitrogen Protoarray v4.0, about 8,400 human proteins spotted on nitrocellulose-coated glass slides; 10 µg biotinylated tag-free NEMO in 120 µl probing buffer (PBS, 0.5 mM DTT, 5 mM MgCl2, 5% glycerol, 0.05% Triton X-100), 4°C, 1.5 h; bound NEMO detected with labelled streptavidin; hits Z-score > 3, hits of the biotin-GST control array subtracted). Details: both partners purified.
T1 construct: NEMO, NF-κB essential modulator, human, 48 kDa; also called biotinylated NEMO; biotin-NEMO; source: E. coli BL21(DE3), purified (glutathione sepharose), GST removed with thrombin, biotinylated in vitro

| Binder | binding result |
| --- | --- |
| B1 | binds |
| B2 | binds |
| B3 | binds |
| B4 | binds |
| B5 | binds |
| B6 | binds |
| B7 | binds |
| B8 | binds |
| B9 | binds |
| B10 | binds |
| B11 | binds |
